{"source": "paper PMC4395418", "about": "“The Aspartate-Less Receiver (ALR) Domains: Distribution, Structure and Function” (PLoS Pathogens, 2015)", "binders": {"B1": {"name": "RitR full-length, Leu86 to Ala Gate mutant (natural protein)", "chain": "MGKRILLLEKERNLAHFLSLELQKEQYRVDLVEEGQKALSMALQTDYDLILLNVNLGDMMAQDFAEKLSRTKPASVIMILDHWEDAQEELEVVQRFAVSYIYKPVLIENLVARISAIFRGRDFIDQHCSLMKVPRTYRNLRIDVEHHTVYRGEEMIALTRREYDLLATLMGSKKVLTREQLLESVWKYESATETNIVDVYIRYLRSKLDVKGQKSYIKTVRGVGYTMQE", "notes": "RitR, Streptococcus pneumoniae strain R800, full-length, Gate residue Leu86 changed to Ala; also called RitRFL Leu86 mutant; source: E. coli BL21(DE3) or BL21(DE3)-Star, purified (Ni2+ agarose, ULP1 cleavage, subtractive Ni2+ column); not shown: His6, N-terminal, cleaved; SUMO, N-terminal, cleaved"}, "B2": {"name": "RitR ALR (REC) receiver domain, Leu86 to Ala mutant (domain or fragment)", "chain": "MGKRILLLEKERNLAHFLSLELQKEQYRVDLVEEGQKALSMALQTDYDLILLNVNLGDMMAQDFAEKLSRTKPASVIMILDHWEDAQEELEVVQRFAVSYIYKPVLIENLVARISAIFRGRDFIG", "notes": "RitR, Streptococcus pneumoniae strain R800, ALR (REC) domain, amino acids Met1-Ile124, Ala substitution of Leu86; extra C-terminal glycine residue; PDB 4LZL is the wild-type parent of the same limits; also called RitRALR Leu86 mutant; source: E. coli BL21 DE3, 15N-labelled in M9 medium, purified (Ni-NTA, ULP1 cleavage, subtractive Ni-NTA); not shown: His6, N-terminal, cleaved; SUMO, N-terminal, …"}, "B3": {"name": "RitR ALR (REC) receiver domain, Leu90 to Ala mutant (domain or fragment)", "chain": "MGKRILLLEKERNLAHFLSLELQKEQYRVDLVEEGQKALSMALQTDYDLILLNVNLGDMMAQDFAEKLSRTKPASVIMILDHWEDLQEEAEVVQRFAVSYIYKPVLIENLVARISAIFRGRDFIG", "notes": "RitR, Streptococcus pneumoniae strain R800, ALR (REC) domain, amino acids Met1-Ile124, Leu90 changed to Ala; extra C-terminal glycine residue; PDB 4LZL is the wild-type parent of the same limits; also called RitRALR Leu90>Ala mutant; Leu90 mutant; source: E. coli BL21 DE3, 15N-labelled in M9 medium, purified (Ni-NTA, ULP1 cleavage, subtractive Ni-NTA); not shown: His6, N-terminal, cleaved; SUMO, …"}, "B4": {"name": "RitR full-length, Leu90 to Ala Gate mutant (natural protein)", "chain": "MGKRILLLEKERNLAHFLSLELQKEQYRVDLVEEGQKALSMALQTDYDLILLNVNLGDMMAQDFAEKLSRTKPASVIMILDHWEDLQEEAEVVQRFAVSYIYKPVLIENLVARISAIFRGRDFIDQHCSLMKVPRTYRNLRIDVEHHTVYRGEEMIALTRREYDLLATLMGSKKVLTREQLLESVWKYESATETNIVDVYIRYLRSKLDVKGQKSYIKTVRGVGYTMQE", "notes": "RitR, Streptococcus pneumoniae strain R800, full-length, Gate residue Leu90 changed to Ala; also called RitRFL Leu90 mutant; source: E. coli BL21(DE3) or BL21(DE3)-Star, purified (Ni2+ agarose, ULP1 cleavage, subtractive Ni2+ column); not shown: His6, N-terminal, cleaved; SUMO, N-terminal, cleaved"}, "B5": {"name": "RitR full-length, Val93 to Ala Gate mutant (natural protein)", "chain": "MGKRILLLEKERNLAHFLSLELQKEQYRVDLVEEGQKALSMALQTDYDLILLNVNLGDMMAQDFAEKLSRTKPASVIMILDHWEDLQEELEVAQRFAVSYIYKPVLIENLVARISAIFRGRDFIDQHCSLMKVPRTYRNLRIDVEHHTVYRGEEMIALTRREYDLLATLMGSKKVLTREQLLESVWKYESATETNIVDVYIRYLRSKLDVKGQKSYIKTVRGVGYTMQE", "notes": "RitR, Streptococcus pneumoniae strain R800, full-length, Ala substitution of Gate residue Val93; also called RitRFL Val93 mutant; source: E. coli BL21(DE3) or BL21(DE3)-Star, purified (Ni2+ agarose, ULP1 cleavage, subtractive Ni2+ column); not shown: His6, N-terminal, cleaved; SUMO, N-terminal, cleaved"}, "B6": {"name": "RitR full-length, Leu86/Val93 double mutant (natural protein)", "chain": "MGKRILLLEKERNLAHFLSLELQKEQYRVDLVEEGQKALSMALQTDYDLILLNVNLGDMMAQDFAEKLSRTKPASVIMILDHWEDAQEELEVAQRFAVSYIYKPVLIENLVARISAIFRGRDFIDQHCSLMKVPRTYRNLRIDVEHHTVYRGEEMIALTRREYDLLATLMGSKKVLTREQLLESVWKYESATETNIVDVYIRYLRSKLDVKGQKSYIKTVRGVGYTMQE", "notes": "RitR, Streptococcus pneumoniae strain R800, full-length, Val93 mutant combined with a Leu86 mutation (Ala); also called RitRFL Leu86/Val93 double mutant; source: E. coli BL21(DE3) or BL21(DE3)-Star, purified (Ni2+ agarose, ULP1 cleavage, subtractive Ni2+ column); not shown: His6, N-terminal, cleaved; SUMO, N-terminal, cleaved"}, "B7": {"name": "BS2 33-mer (dsDNA)", "DNA 1": "ATTTTATTGACAGATTAGAAAAATAATGTTACA", "DNA 2": "TGTAACATTATTTTTCTAATCTGTCAATAAAAT"}}, "key": {"[1]": {"target": "the molecule itself", "experiment": "SEC; RitRFL wild-type and mutants; Agilent 1220 HPLC, BioBasic SEC-300A column, 50 mM TRIS pH 8.0, 150 mM NaCl, 10 mM DTT; proteins pre-treated with 10 mM DTT; 0.5 ml/min, ambient temperature"}, "[2]": {"target": "the molecule itself", "experiment": "SEC; purified 15N-labelled RitRALR (ALR domain only) wild-type and Ala mutants; oligomeric state"}, "RitR FL L90A": {"target": "RitR FL L90A (Streptococcus pneumoniae R800, UniProt A0ACD7PPZ9 1-229, L90A)", "experiment": "EMSA; 20 mM HEPES pH 7.2, 5 mM MgCl2, 1 mM CaCl2, 0.1 mM EDTA, 10 mM DTT, 10% glycerol, 0.5 uM DNA, 800 ng poly(dI-dC) in 20 ul, room temperature 10 min; 4% native TAE PAGE", "conditions": "protein: recombinant; tags: His6-SUMO removed by ULP1; chain copies: 2; label: 5' HEX on strand 1; blunt"}, "RitR FL L86A": {"target": "RitR FL L86A (Streptococcus pneumoniae R800, UniProt A0ACD7PPZ9 1-229, L86A)", "experiment": "EMSA; 20 mM HEPES pH 7.2, 5 mM MgCl2, 1 mM CaCl2, 0.1 mM EDTA, 10 mM DTT, 10% glycerol, 0.5 uM DNA, 800 ng poly(dI-dC) in 20 ul, room temperature 10 min; 4% native TAE PAGE", "conditions": "protein: recombinant; tags: His6-SUMO removed by ULP1; chain copies: 2; label: 5' HEX on strand 1; blunt"}, "RitR FL F96G": {"target": "RitR FL F96G (Streptococcus pneumoniae R800, UniProt A0ACD7PPZ9 1-229, F96G)", "experiment": "EMSA; 20 mM HEPES pH 7.2, 5 mM MgCl2, 1 mM CaCl2, 0.1 mM EDTA, 10 mM DTT, 10% glycerol, 0.5 uM DNA, 800 ng poly(dI-dC) in 20 ul, room temperature 10 min; 4% native TAE PAGE", "conditions": "protein: recombinant; tags: His6-SUMO removed by ULP1; chain copies: 2; label: 5' HEX on strand 1; blunt"}, "RitR FL L86A/V93A": {"target": "RitR FL L86A/V93A (Streptococcus pneumoniae R800, UniProt A0ACD7PPZ9 1-229, L86A;V93A)", "experiment": "EMSA; 20 mM HEPES pH 7.2, 5 mM MgCl2, 1 mM CaCl2, 0.1 mM EDTA, 10 mM DTT, 10% glycerol, 0.5 uM DNA, 800 ng poly(dI-dC) in 20 ul, room temperature 10 min; 4% native TAE PAGE", "conditions": "protein: recombinant; tags: His6-SUMO removed by ULP1; chain copies: 2; label: 5' HEX on strand 1; blunt"}, "RitR FL wild-type": {"target": "RitR FL wild-type (Streptococcus pneumoniae R800, UniProt A0ACD7PPZ9 1-229)", "experiment": "EMSA; up to 6.6 uM protein; 20 mM HEPES pH 7.2, 5 mM MgCl2, 1 mM CaCl2, 0.1 mM EDTA, 10 mM DTT, 10% glycerol, 0.5 uM DNA, 800 ng poly(dI-dC) in 20 ul, room temperature 10 min; 4% native TAE PAGE", "conditions": "protein: recombinant; tags: His6-SUMO removed by ULP1; chain copies: 2; label: 5' HEX on strand 1; blunt"}, "RitR FL Y100A": {"target": "RitR FL Y100A (Streptococcus pneumoniae R800, UniProt A0ACD7PPZ9 1-229, Y100A)", "experiment": "EMSA; binding seen at 0.22 uM protein; 20 mM HEPES pH 7.2, 5 mM MgCl2, 1 mM CaCl2, 0.1 mM EDTA, 10 mM DTT, 10% glycerol, 0.5 uM DNA, 800 ng poly(dI-dC) in 20 ul, room temperature 10 min; 4% native TAE PAGE", "conditions": "protein: recombinant; tags: His6-SUMO removed by ULP1; chain copies: 2; label: 5' HEX on strand 1; blunt"}, "RitR FL D81A": {"target": "RitR FL D81A (Streptococcus pneumoniae R800, UniProt A0ACD7PPZ9 1-229, D81A)", "experiment": "EMSA; binding seen at 0.22 uM protein; 20 mM HEPES pH 7.2, 5 mM MgCl2, 1 mM CaCl2, 0.1 mM EDTA, 10 mM DTT, 10% glycerol, 0.5 uM DNA, 800 ng poly(dI-dC) in 20 ul, room temperature 10 min; 4% native TAE PAGE", "conditions": "protein: recombinant; tags: His6-SUMO removed by ULP1; chain copies: 2; label: 5' HEX on strand 1; blunt"}}}
{"binder": "B1", "values": [{"measurement": "stoichiometry N", "setting": "[1]", "value": 2}]}
{"binder": "B2", "values": [{"measurement": "stoichiometry N", "setting": "[2]", "value": 2}]}
{"binder": "B3", "values": [{"measurement": "stoichiometry N", "setting": "[2]", "value": 2}]}
{"binder": "B4", "values": [{"measurement": "stoichiometry N", "setting": "[1]", "value": 2}]}
{"binder": "B5", "values": [{"measurement": "stoichiometry N", "setting": "[1]", "value": 2}]}
{"binder": "B6", "values": [{"measurement": "stoichiometry N", "setting": "[1]", "value": 2}]}
{"binder": "B7", "values": [{"measurement": "binding result", "setting": "RitR FL L90A", "value": "binds"}, {"measurement": "binding result", "setting": "RitR FL L86A", "value": "binds"}, {"measurement": "binding result", "setting": "RitR FL F96G", "value": "no binding"}, {"measurement": "binding result", "setting": "RitR FL L86A/V93A", "value": "binds"}, {"measurement": "binding result", "setting": "RitR FL wild-type", "value": "no binding"}, {"measurement": "binding result", "setting": "RitR FL Y100A", "value": "binds"}, {"measurement": "binding result", "setting": "RitR FL D81A", "value": "binds"}]}
